According to PMC6628311, “An Emerin LEM-Domain Mutation Impairs Cell Response to Mechanical Stress” (Cells, 2019):

B1: human emerin fragment EmN (region 1-187), wild-type (domain or fragment, UniProt P50402 1-187, looked up)
chain: MDNYADLSDTELTTLLRRYNIPHGPVVGSTRRLYEKKIFEYETQRRRLSPPSSSAASSYSFSDLNSTRGDADMYDLPKKEDALLYQSKGYNDDYYEESYFTTRTYGEPESAGPSRAVRQSVTSFPDADAFHHQVHDDDLLSSSEEECKDRERPMYGRDSAYQSITHYRPVSASRSSLDLSYYPTSSS
notes: emerin, human, fragment EmN, residues 1-187 of the 254-residue protein (LEM-domain aa 1-45 and part of the disordered region); pETM-13 vector; also called wild-type EmN; EmN wild-type; not shown: His8, N-terminal, cleaved
B2: human emerin fragment EmN (region 1-187), mutant T43I (domain or fragment, UniProt P50402 1-187, looked up)
chain: MDNYADLSDTELTTLLRRYNIPHGPVVGSTRRLYEKKIFEYEIQRRRLSPPSSSAASSYSFSDLNSTRGDADMYDLPKKEDALLYQSKGYNDDYYEESYFTTRTYGEPESAGPSRAVRQSVTSFPDADAFHHQVHDDDLLSSSEEECKDRERPMYGRDSAYQSITHYRPVSASRSSLDLSYYPTSSS
notes: emerin, human, fragment EmN, residues 1-187, with the patient mutation T43I (atrial cardiac defects); Made by site-directed mutagenesis from the EmN expression vector; also called EmN T43I; not shown: His8, N-terminal, cleaved
B3: human emerin fragment EmN (region 1-187), mutant P22L (domain or fragment, UniProt P50402 1-187, looked up)
chain: MDNYADLSDTELTTLLRRYNILHGPVVGSTRRLYEKKIFEYETQRRRLSPPSSSAASSYSFSDLNSTRGDADMYDLPKKEDALLYQSKGYNDDYYEESYFTTRTYGEPESAGPSRAVRQSVTSFPDADAFHHQVHDDDLLSSSEEECKDRERPMYGRDSAYQSITHYRPVSASRSSLDLSYYPTSSS
notes: emerin, human, fragment EmN, residues 1-187, with the patient mutation P22L (atrial cardiac defects); Made by site-directed mutagenesis from the EmN expression vector; also called EmN P22L; not shown: His8, N-terminal, cleaved
B4: human emerin fragment EmN (region 1-187), mutant ΔK37 (domain or fragment, UniProt P50402 1-187, looked up)
chain: MDNYADLSDTELTTLLRRYNIPHGPVVGSTRRLYEKIFEYETQRRRLSPPSSSAASSYSFSDLNSTRGDADMYDLPKKEDALLYQSKGYNDDYYEESYFTTRTYGEPESAGPSRAVRQSVTSFPDADAFHHQVHDDDLLSSSEEECKDRERPMYGRDSAYQSITHYRPVSASRSSLDLSYYPTSSS
notes: emerin, human, fragment EmN, residues 1-187, with the patient deletion ΔK37 (atrial cardiac defects); Made by site-directed mutagenesis from the EmN expression vector; also called EmN ΔK37; emerin ΔK37; not shown: His8, N-terminal, cleaved

Key:
[1] = target: human barrier-to-autointegration factor (BAF) with all cysteines mutated into alanine (human) (UniProt O75531); test: crystal structure; ternary complex EmN T43I/BAF/lamin A/C Ig-fold at 5 mg/mL, a week at 4 °C (proteolysis to the LEM-domain); hanging drop at 4 °C, 18% PEG 3350, 100 mM Tris Bis pH 5.5, 0.1 M NH4SO4; molecular replacement; 2.3 Å
[2] = target: the molecule itself; test: thioflavin T fluorescence (self-assembly kinetics); protein at 300 uM heated at 37 °C in 20 mM Tris HCl pH 8, 30 mM NaCl, 5 mM DTT; aliquots at 20 uM protein with 2.5 uM ThT read at 20 °C over 24 h

Row | Molecule | stoichiometry N [1] | binding result [2]
1 | human barrier-to-autointegration factor (BAF) with all cysteines mutated into alanine (from UniProt O75531 1-89) (natural protein) | 2 | 
2 | B1 |  | binds
3 | B2 |  | binds
4 | B3 |  | binds
5 | B4 |  | binds
